Test results published in US20190211082A1.

Legend:
[1] = target: humanized monoclonal IgG (anti-IgE monoclonal antibody, "Xolair" manufactured by Novartis AG; generic name Omalizumab); assay: affinity chromatography, 1 mg IgG on 1 mL column, linear pH gradient 5.0 to 2.4 in 100 mM citrate buffer, pH at elution position
[2] = target: humanized monoclonal IgG (anti-IgE monoclonal antibody, "Xolair" manufactured by Novartis AG; generic name Omalizumab); assay: affinity chromatography, 1 mg IgG on 1 mL column, linear pH gradient 5.0 to 3.0 in 100 mM acetate buffer, pH at elution position
[3] = target: Fab fragment (IgG-Fab) derived from anti-IgE monoclonal antibody Omalizumab ("Xolair" manufactured by Novartis AG), made by papain digestion; assay: affinity chromatography, 1 mg Fab on 1 mL column, linear pH gradient 5.0 to 2.4 in 100 mM citrate buffer, pH at elution peak top, 25 °C
[4] = target: Fab fragment (IgG-Fab) derived from anti-IgE monoclonal antibody Omalizumab ("Xolair" manufactured by Novartis AG), made by papain digestion; assay: affinity chromatography, 1 mg Fab on 1 mL column, linear pH gradient 5.0 to 3.0 in 100 mM acetate buffer, pH at elution peak top, 25 °C

| Substance | Antibody elution pH (100 mM citrate buffer) [1] | Antibody elution pH (100 mM acetate buffer) [2] | Antibody elution pH (100 mM citrate buffer) [3] | Antibody elution pH (100 mM acetate buffer) [4] |
| --- | --- | --- | --- | --- |
| Protein A ligand of the commercially available Protein A carrier "HiTrap MabSelect SuRe" manufactured by GE Healthcare | 3.53 pH | 3.64 pH | – | – |
| Protein L ligand of the commercially available affinity separation matrix "HiTrap Protein L 1 mL-gel" manufactured by GE Healthcare | – | – | 2.93 pH | 3.6 pH |
| VL-κ-binding peptide of Experimental product A: 4 VL-κ-binding domains (SEQ ID NO: 2) of wild Protein L of Peptostreptococcus magnus 312 strain bound through the peptides that connect domains in SEQ ID NO: 1, with an active group for immobilization at the C-terminal (designed binder) | – | – | 2.71 pH | 3.47 pH |
